T1: porcine heart citrate synthase (pig, UniProt P00889 28-464)
T1 construct: citrate synthase from porcine heart; Partly unfolded by incubation at 45 °C when it meets the chaperone; also called CS; source: bought: Sigma-Aldrich (porcine heart)
T1 sequence (looked up): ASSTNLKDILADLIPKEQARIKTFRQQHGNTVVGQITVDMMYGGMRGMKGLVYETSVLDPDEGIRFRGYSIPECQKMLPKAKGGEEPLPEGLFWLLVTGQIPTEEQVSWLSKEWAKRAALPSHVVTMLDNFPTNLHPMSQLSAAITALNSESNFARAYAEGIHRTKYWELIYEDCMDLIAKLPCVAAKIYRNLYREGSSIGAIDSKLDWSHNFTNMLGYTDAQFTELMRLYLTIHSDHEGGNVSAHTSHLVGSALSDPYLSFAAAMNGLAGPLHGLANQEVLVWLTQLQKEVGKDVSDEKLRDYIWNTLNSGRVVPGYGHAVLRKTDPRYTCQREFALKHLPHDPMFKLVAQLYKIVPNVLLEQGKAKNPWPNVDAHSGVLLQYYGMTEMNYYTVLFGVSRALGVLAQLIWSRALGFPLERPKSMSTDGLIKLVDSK


Legend:
[1] = biological target: the molecule itself; assay: SEC; analytical SEC of isolated oligomers, Superdex 200 increase, 10 µmol/L protein in 20 mmol/L NaPi, 0.2 mmol/L EDTA, pH 8.0; number of subunits estimated from the peak maximum and its full width at half maximum
[2] = biological target: T1, porcine heart citrate synthase; assay: SEC; 0.6 µmol/L CS incubated with 6 µmol/L rh Bri2 BRICHOS oligomers in 40 mmol/L HEPES/KOH pH 7.5 at 45 °C, then Superose 6 in 20 mmol/L NaPi pH 8.0, 0.2 mmol/L EDTA; fractions by SDS-PAGE (two bands) and native PAGE (one band); negative-stain EM of the complex; details: both partners purified

Row | binding result [2] | Binder | stoichiometry N [1] | binding result [1]
1 | binds | recombinant human Bri2 BRICHOS domain, wild type (domain or fragment, UniProt Q9Y287 113-231, looked up, human Bri2, BRICHOS domain, residues 113 to 231; Also exists as monomers and dimers; the oligomer fraction was used with CS; also called wt Bri2 BRICHOS; rh Bri2 BRICHOS; source: recombinant, modified pET32 vector with His6-NT* tag; copies: about 18-30 (oligomers, estimated by SEC)) QTIEENIKIFEEEEVEFISVPVPEFADSDPANIVHDFNKKLTAYLDLNLDKCYVIPLNTSIVMPPRNLLELLINIKAGTYLPQSYLIHEHMVITDRIENIDHLGFFIYRLCHDKETYKL | 18 to 30 subunits | 
2 |  | rh Bri2 BRICHOS T206W (domain or fragment, human, UniProt Q9Y287 113-231, looked up, also called T206W mutant; source: recombinant, modified pET32 vector with His6-NT* tag) QTIEENIKIFEEEEVEFISVPVPEFADSDPANIVHDFNKKLTAYLDLNLDKCYVIPLNTSIVMPPRNLLELLINIKAGTYLPQSYLIHEHMVIWDRIENIDHLGFFIYRLCHDKETYKL |  | binds
